The supplement of paper PMC9170038

System: MS2 coat protein
Test: apparent KD of MS2 coat protein; designed switch direction (-1 OFF switch, 1 ON switch): -1; higher = weaker reporter binding
Summary of the method: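 Each step of the titration lasted 0.8–1.5 h at the lowest concentration and 10–20 min at the highest. The protein, SNAP-549-labelled MS2 coat protein, went from 0.7 or 1.5 nM doubling to 3 µM over RNA switches transcribed on Illumina chips by stalled E. coli RNA polymerase. Normalised cluster fluorescence was curve-fitted, and the per-design median over clusters is given as apparent KD.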

[1] = Eterna round: R95, input ligand: microRNA oligo, concentration not stated
[2] = input ligand: microRNA oligo, concentration not stated

For “UUCAGACAUGAGGAUCACCCAUGUGAGGAUAUGAUGCGAUCGUCGAAAGACGAUAGCAUCAGAAGGUACAAAUG [Fiskers Ex 1 - 19] (puzzle: Exclusion 1)”, the “apparent KD of MS2 coat protein” value [1] was 61 nM.
For “UUCAGUCAUCCUUAUUCUUACAUGAGGAUCACCCAUGUUUGUUUAAUUAAGUUUUGUAAGUUUGUUGUUCGUUUUAU [JR_STOV1_v2_Sub073] (Eterna round: R97, puzzle: Sensor, turn-off variant 1)”, the “apparent KD of MS2 coat protein” value (input ligand: FMN 200 uM) was 47.9 nM and the “apparent KD of MS2 coat protein” value (input ligand: none) was 50.3 nM.
With “UUCAUGUGAGGAUAUAGUACUCCUUCUAUUAUUAUUGAGUAUUAGAAGGCACAUGAGGAUCACCCAUGUAGUAC [Ex4 - 3 - 40] (puzzle: Exclusion 4)” the “apparent KD of MS2 coat protein” value [1] was 24.3 nM.
For “UUCCACGAUGUCAGGAUAUGUAGGGCCGCUGCUAGGCAGAAGGGACAUGAGGAUCACCCAUGUACUGACUACUG [Eternabot (L2) Solution 84] (Eterna round: R97, puzzle: Brourd's mod of Exclusion 4)”, the “apparent KD of MS2 coat protein” value (input ligand: FMN 200 uM) was 78.2 nM and the “apparent KD of MS2 coat protein” value (input ligand: none) was 69.6 nM.
“UUCCGCCUAGGAUAUUGGAUACUCUACAUGAGGAUCACCCAUGUGAGCAUGAAAGAUAUCCAAGAAGGAGGUAGCC [Eternabot (L2) Solution 68] (Eterna round: R97, puzzle: Exclusion 5)” was tested, and the “apparent KD of MS2 coat protein” value (input ligand: FMN 200 uM) was 16.7 nM and the “apparent KD of MS2 coat protein” value (input ligand: none) was 14.6 nM.
In the case of “UUCCGGCGUGUAGGAUAUGGUUCCGUUUCGGUUCCAGAAGGACAUGAGGAUCACCCAUGUGCCUGUCGUCGGUCGUCACCGGGC [salish99_ExNG1_r04_219] (Eterna round: R96, puzzle: Exclusion NG 1)”, the “apparent KD of MS2 coat protein” value (input ligand: FMN 200 uM) is reported as 22.3 nM, the “apparent KD of MS2 coat protein” value [2] is reported as 13.3 nM and the “apparent KD of MS2 coat protein” value (input ligand: none) is reported as 15.3 nM.
In the case of “UUCCUACAUGAGGAUCACCCAUGUCAGGAUAUAUAAAACGCUCUGGUAAUAGAGCAAGAUAGAAGGGAUUGGGA [Beeratve] (Eterna round: R97, puzzle: Exclusion 1)”, the “apparent KD of MS2 coat protein” value (input ligand: FMN 200 uM) is reported as 14.6 nM and the “apparent KD of MS2 coat protein” value (input ligand: none) is reported as 13.3 nM.
With “UUCCUACAUGAGGAUCACCCAUGUCAGGAUAUCUCCUCGUCGCCAAUGGGCGACGAAUAGAGAAGGGACAGGAA [Rerizaatra] (puzzle: Exclusion 1)” the “apparent KD of MS2 coat protein” value [1] was 13.1 nM.
With “UUCCUCAUAACAUGAGGAUCACCCAUGUAUUAUUUGAUAACUGAGGAUAUACUUUUAAUGUUUAUGUAGAAGGCAGAUACAGUU [JR_ExcNG3_Sub016] (Eterna round: R96, puzzle: Exclusion NG 3)” the “apparent KD of MS2 coat protein” value [2] was 89.6 nM.
With “UUCCUCGUUGUGAGGAUAUCGUCCGGGUUUUGUUACGAGAAGGCACAUGAGGAUCACCCAUGUUACUUGAUGUU [JR_BMOE4_Sub072] (puzzle: Brourd's mod of Exclusion 4)” the “apparent KD of MS2 coat protein” value [1] was 20 nM.
“UUCCUCGUUGUGAGGAUAUCGUCCGUGUUUUGUUACGAGAAGGCACAUGAGGAUCACCCAUGUUUUUUGUUUUU [JR_BMOE4_Sub075] (puzzle: Brourd's mod of Exclusion 4)” was tested, and the “apparent KD of MS2 coat protein” value [1] was 40 nM.
With “UUCCUCGUUGUGAGGAUAUCGUCCUCUUUUUGUUACGAGAAGGCACAUGAGGAUCACCCAUGUUUCUUGAUGUU [JR_BMOE4_Sub070] (puzzle: Brourd's mod of Exclusion 4)” the “apparent KD of MS2 coat protein” value [1] was 16.7 nM.
In the case of “UUCCUGUCAGGAUAUGACUAGAUGCACGAAAGUGUGUUUACUUAGAAGGGACAUGAGGAUCACCCAUGUAGUCC [Bring Us a Shrubbery-17] (puzzle: Exclusion 4)”, the “apparent KD of MS2 coat protein” value [1] is reported as 31.3 nM.
For “UUCCUGUCAGGAUAUGACUAGAUGCACGAAAGUGUGUUUAGUUAGAAGGGACAUGAGGAUCACCCAUGUAGUCC [Bring Us a Shrubbery-18] (puzzle: Exclusion 4)”, the “apparent KD of MS2 coat protein” value [1] was 20.9 nM.
With “UUCGGCGGAGGAUAUACAGUUUUUUGUUGAAUCGGCGGAAAACAUGAGGAUCACCCAUGUAGAAGGUUGUUGAA [-19.8, -17.1 kcal, A 28%] (Eterna round: R97, puzzle: Exclusion 2)” the “apparent KD of MS2 coat protein” value (input ligand: FMN 200 uM) was 64.2 nM and the “apparent KD of MS2 coat protein” value (input ligand: none) was 65.6 nM.
With “UUCGGGUCAGGAUAUUGUUAGUUUAGUUGUUUGUAUUAGUUCGAGAAGGGACAUGAGGAUCACCCAUGUGGUAA [Ex4 #81] (Eterna round: R97, puzzle: Exclusion 4)” the “apparent KD of MS2 coat protein” value (input ligand: FMN 200 uM) was 71.5 nM and the “apparent KD of MS2 coat protein” value (input ligand: none) was 160 nM.
With “UUCGUGCAGCUUUGCUGUACGCGUACAUGAGGAUCACCCAUGUAGGAUAUGGUAGGCAAAGCUUACUAGAAGGAUAUAGUGAUC [Mat - Exclusion NG 3 - Mod of JL - D78] (Eterna round: R96, puzzle: Exclusion NG 3)” the “apparent KD of MS2 coat protein” value (input ligand: FMN 200 uM) was 66.7 nM, the “apparent KD of MS2 coat protein” value [2] was 41.7 nM and the “apparent KD of MS2 coat protein” value (input ligand: none) was 64.5 nM.
In the case of “UUCGUGUGAGGAUAUCGAUUAUGGAAGUCUAGAUCCAUACGCGAGAAGGCACAUGAGGAUCACCCAUGUAAUGG [jl-ex4-4.34 ViennaUCT mod] (Eterna round: R97, puzzle: Exclusion 4)”, the “apparent KD of MS2 coat protein” value (input ligand: FMN 200 uM) is reported as 38 nM and the “apparent KD of MS2 coat protein” value (input ligand: none) is reported as 227 nM.
For “UUCUGCACGCUGCGGUCCUACAUGAGGAUCACCCAUGUGGUCUGGUGGCGUGGGUCACCGGACUUGGCUCGUCUUGC [salish99_S_TOV1_R5_053] (Eterna round: R97, puzzle: Sensor, turn-off variant 1)”, the “apparent KD of MS2 coat protein” value (input ligand: FMN 200 uM) was 20.1 nM and the “apparent KD of MS2 coat protein” value (input ligand: none) was 21.1 nM.
“UUCUGGACAGGAUAUGUACUUGAGCACUUGAGGAUCACCCAAGUCGUCAAGUACUCAGGCACAGAAGGGUUAAUUU [jl-ex5.4.67 ViennaUCT mod] (Eterna round: R97, puzzle: Exclusion 5)” was tested, and the “apparent KD of MS2 coat protein” value (input ligand: FMN 200 uM) was 30.7 nM and the “apparent KD of MS2 coat protein” value (input ligand: none) was 15.3 nM.
“UUCUUACAUGAGGAUCACCCAUGUCAGGAUAUCUCCGCACUGCGCUUGCGCAGUGCAUAGAGAAGGGACAGGCU [JL ViennaUCT Aner mod 4] (puzzle: Exclusion 1)” was tested, and the “apparent KD of MS2 coat protein” value [1] was 45.7 nM.
In the case of “UUCUUACAUGAGGAUCACCCAUGUCAGGAUAUCUCCUCACUGCGCUUGCGCAGUGAAUAGAGAAGGGACAGGCU [JL ViennaUCT Aner mod 2] (puzzle: Exclusion 1)”, the “apparent KD of MS2 coat protein” value [1] is reported as 37.3 nM.
For “UUCUUACGAGGAUAUCGAUUGUGGUACAUGAGGAUCACCCAUGUAUGUGAUAUUGUAUUUCGAGAAGGCGUUCAGU [JR_E5_Sub059] (puzzle: Exclusion 5)”, the “apparent KD of MS2 coat protein” value [1] was 25.2 nM.
For “UUCUUGGCAGGAUAUGCUUUUUUAGACAUGAGGAUCACCCAUGUGAUUAUUUUUGGUUUUGCAGAAGGGCCUUAAU [JR_E5_Sub042] (puzzle: Exclusion 5)”, the “apparent KD of MS2 coat protein” value [1] was 59.9 nM.
In the case of “UUCUUUACACGAGGAUAUCAUACAUGAGGAUCACCCAUGUGGCUGUGUCUGUUUUUAUGUAUUAUUGAGAAGGCGUUUUUCUUU [JR_ExcNG2_Sub075] (Eterna round: R96, puzzle: Exclusion NG 2)”, the “apparent KD of MS2 coat protein” value (input ligand: FMN 200 uM) is reported as 105 nM, the “apparent KD of MS2 coat protein” value [2] is reported as 28.3 nM and the “apparent KD of MS2 coat protein” value (input ligand: none) is reported as 33 nM.
“UUCUUUACACGAGGAUAUCAUACAUGAGGAUCACCCAUGUUACUUUGUCUGUUAUUAUGUAUUAUUGAGAAGGCGUUUUUCUUU [JR_ExcNG2_Sub077] (Eterna round: R96, puzzle: Exclusion NG 2)” was tested, and the “apparent KD of MS2 coat protein” value [2] was 15.8 nM.
In the case of “UUGAAGUCAUCAGGAUAUAGUAUAAAAGACAUAUAUUUUUUCAAACAUGAGGAUCACCCAUGUCGCUAGAAGGGAUUAUAGAUU [JR_ExcNG2_Sub081] (Eterna round: R96, puzzle: Exclusion NG 2)”, the “apparent KD of MS2 coat protein” value [2] is reported as 34.7 nM.
For “UUGAAGUCGUCAGGAUAUAGUUUUAAUGUCAUGCGUAUGUUCUUACAUGAGGAUCACCCAUGUCGCUAGAAGGGACUAUAGAUU [JR_ExcNG2_Sub009] (Eterna round: R96, puzzle: Exclusion NG 2)”, the “apparent KD of MS2 coat protein” value (input ligand: FMN 200 uM) was 53.3 nM, the “apparent KD of MS2 coat protein” value [2] was 36.4 nM and the “apparent KD of MS2 coat protein” value (input ligand: none) was 51.6 nM.
“UUGACGGCAGGAUAUACAUGAGGAUCACCCAUGUAAAUUUUUCGUUUAACUUGAAUGUGUAGAAGGGCCAUGUU [Ex3 #72] (Eterna round: R97, puzzle: Exclusion 3)” was tested, and the “apparent KD of MS2 coat protein” value (input ligand: FMN 200 uM) was 18.2 nM and the “apparent KD of MS2 coat protein” value (input ligand: none) was 19 nM.
In the case of “UUGAGCAGACGGAGAUCCAACAUGAGGAUCACCCAUGUCUCAUAAGCUUUUUGUUCAUCUUAUUGUACCUUGGUGCA [Mat - Sensor v3 - turn-off var 1 - JL Mod - D24] (puzzle: Sensor v3, turn-off variant 1)”, the “apparent KD of MS2 coat protein” value (Eterna round: R95, input ligand: FMN 200 uM) is reported as 71.3 nM, the “apparent KD of MS2 coat protein” value [1] is reported as 17 nM and the “apparent KD of MS2 coat protein” value (Eterna round: R95, input ligand: none) is reported as 64.1 nM.
With “UUGAUACAUACCUCCAUAAACAUGAGGAUCACCCAUGUAAGUGAGGAUAUAGAUUGUUUAGUAUACUAGAAGGCACUUAGAUAU [JR_ExcNG3_Sub045] (Eterna round: R96, puzzle: Exclusion NG 3)” the “apparent KD of MS2 coat protein” value [2] was 9.11 nM.
In the case of “UUGAUUAGAAAGGAUAUCGGAUACUUGAGAGUCCGAGAAGGUUUUACAUGAGGAUCACCCAUGUGGCAUCCUCG [Eternabot (L1) Solution 99] (Eterna round: R97, puzzle: Exclusion 6)”, the “apparent KD of MS2 coat protein” value (input ligand: FMN 200 uM) is reported as 476 nM and the “apparent KD of MS2 coat protein” value (input ligand: none) is reported as 805 nM.
“UUGAUUCAUUCCUCCAUAAACAUGAGGAUCACCCAUGUAAGUGAGGAUAUAGUUUGUUUAGUAUACUAGAAGGCACUUAGAUAU [JR_ExcNG3_Sub046] (Eterna round: R96, puzzle: Exclusion NG 3)” was tested, and the “apparent KD of MS2 coat protein” value (input ligand: FMN 200 uM) was 12.7 nM, the “apparent KD of MS2 coat protein” value [2] was 9.61 nM and the “apparent KD of MS2 coat protein” value (input ligand: none) was 12.6 nM.
“UUGCCGCGAGGAUAUAUAGACGGGUUCAAUACGUGUCUCGGACUUGAGGAUCACCCAAGUAGAAGGCUUUUUAU [LRO-Excl2-12-mod _r4_621 by salish99] (Eterna round: R97, puzzle: Exclusion 2)” was tested, and the “apparent KD of MS2 coat protein” value (input ligand: FMN 200 uM) was 15.5 nM and the “apparent KD of MS2 coat protein” value (input ligand: none) was 14.7 nM.
In the case of “UUGCCGCGAGGAUAUGCAGACGGGUUCAAUACGUGUCUCGGACUUGAGGAUCACCCAAGUAGAAGGCUUUUUAU [LRO-Excl2-13-mod _r4_621 by salish99] (Eterna round: R97, puzzle: Exclusion 2)”, the “apparent KD of MS2 coat protein” value (input ligand: FMN 200 uM) is reported as 16.2 nM and the “apparent KD of MS2 coat protein” value (input ligand: none) is reported as 14.8 nM.
“UUGCGGAGAGGAUAUACAUAGGCGGAUUGGUAGACUCAAAUACAUGAGGAUCACCCAUGUAGAAGGCUUGAUCA [Eternabot (L2) Solution 22] (Eterna round: R97, puzzle: Exclusion 2)” was tested, and the “apparent KD of MS2 coat protein” value (input ligand: FMN 200 uM) was 144 nM and the “apparent KD of MS2 coat protein” value (input ligand: none) was 50.4 nM.
